Source: patent publication US7829303 (ELAN PHARMACEUTICALS, dated 2010)
Where no end group is shown, it is not given here. [ ]: non-standard residue; d: D form. Sta = CC(C)C[C@H](N)[C@@H](O)CC(=O)O

Target: T1, recombinant human beta secretase (BACE), E. coli construct pQE70-BACE (human, UniProt P56817 57-453)
T1 construct: also called Asp2; memapsin 2
Assay: affinity chromatography, peptide immobilised on resin
Protocol: Prior to purification, the pH of the refolded protein was lowered from about 10 to 8.5 with HCl. The solution was loaded onto three 50 ml Q-Sepharose columns (Pharmacia Biotech XK 50). The columns were pre-equilibrated in 0.4 M Urea, 10 mM AMPSO, pH 8.5. After refolded protein was loaded onto the columns, they were washed with 500 ml of 0.4 M Urea, 10 mM TRIS, pH 8.2. The columns were eluted with 180-245 ml of 0.75 M NaCl in 0.4 M Urea 10 mM TRIS buffer, pH 8.2. The eluates were then dialyzed versus 20 mM HEPES, pH 8.0. The samples were then removed from dialysis and dropped into 1 M NaMES, pH 5.7 (0.1 M final concentration). After centrifugation (20 K×g) the supernatant was dropped into 1 M Na-acetate, 1 M NaMES, pH 5.0 (0.2 M Na-acetate, 0.28 M Na-MES was the final concentration). […] This solution was then applied to a 15 ml affinity column equilibrated at the same pH. The column was washed with 6 column volumes of 20 mM sodium acetate buffer pH 4.5, 150 mM NaCl. BACE was eluted at pH 8.5 using about 50 ml of 0.1 M borate buffer. This final step removed any residual contaminants. From 40 liter of *E. coli* cell culture, the amount of protein obtained was 137 mg of highly purified pQE70-BACE construct. Purified pQE70-BACE was dialyzed into 100 mM NaBorate pH 8.5.

T1 sequence (P56817 other isoform, or with tags, fused parts or gaps limits assumed): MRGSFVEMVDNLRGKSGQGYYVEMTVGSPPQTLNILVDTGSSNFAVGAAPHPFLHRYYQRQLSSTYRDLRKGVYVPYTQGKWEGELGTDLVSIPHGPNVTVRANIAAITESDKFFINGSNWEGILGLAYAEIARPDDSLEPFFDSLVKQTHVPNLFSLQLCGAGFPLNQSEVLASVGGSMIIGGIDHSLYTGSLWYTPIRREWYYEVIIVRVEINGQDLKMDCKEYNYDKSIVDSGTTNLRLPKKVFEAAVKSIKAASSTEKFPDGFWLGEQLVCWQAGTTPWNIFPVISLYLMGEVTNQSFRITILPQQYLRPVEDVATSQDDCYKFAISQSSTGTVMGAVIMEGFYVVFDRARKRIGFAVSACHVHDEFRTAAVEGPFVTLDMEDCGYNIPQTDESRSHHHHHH

SEVN[Sta]VAEFRGGC [synthetic peptide Ser-Glu-Val-Asn-Sta-Val-Ala-Glu-Phe-Arg-Gly-Gly-Cys (where Sta=statine)]
binding result: binds
